# Laboratory results taken from patent US20210169880A1.
# B1: SLAMF7 CAR with CD28 costimulatory domain (protein)
# chain: EVQLVESGGGLVQPGGSLRLSCAASGFDFSRYWMSWVRQAPGKGLEWIGEINPDSSTINYAPSLKDKFIISRDNAKNSLYLQMNSLRAEDTAVYYCARPDGNYWYFDVWGQGTLVTVSSGGGGSGGGGSGGGGSDIQMTQSPSSLSASVGDRVTITCKASQDVGIAVAWYQQKPGKVPKLLIYWASTRHTGVPDRFSGSGSGTDFTLTISSLQPEDVATYYCQQYSSYPYTFGQGTKVEIKESKYGPPCPPCPAPPVAGPSVFLFPPKPKDTLMISRTPEVTCVVVDVSQEDPEVQFNWYVDGVEVHNAKTKPREEQFQSTYRVVSVLTVLHQDWLNGKEYKCKVSNKGLPSSIEKTISKAKGQPREPQVYTLPPSQEEMTKNQVSLTCLVKGFYPSDIAVEWESNGQPENNYKTTPPVLDSDGSFFLYSRLTVDKSRWQEGNVFSCSVMHEALHNHYTQKSLSLSLGKMFWVLVVVGGVLACYSLLVTVAFIIFWVRSKRSRGGHSDYMNMTPRRPGPTRKHYQPYAPPRDFAAYRSRVKFSRSADAPAYQQGQNQLYNELNLGRREEYDVLDKRRGRDPEMGGKPRRKNPQEGLYNELQKDKMAEAYSEIGMKGERRRGKGHDGLYQGLSTATKDTYDALHMQALPPR
# B2: ROR1 CAR with 4-1BB costimulatory domain (protein)
# chain: QVQLVESGGALVQPGGSLTLSCKASGFDFSAYYMSWVRQAPGKGLEWIATIYPSSGKTYYAASVQGRFTISADNAKNTVYLQMNSLTAADTATYFCARDSYADDGALFNIWGQGTLVTVSSGGGGSGGGGSGGGGSQLVLTQSPSVSAALGSSAKITCTLSSAHKTDTIDWYQQLAGQAPRYLMYVQSDGSYEKRSGVPDRFSGSSSGADRYLIISSVQADDEADYYCGADYIGGYVFGGGTQLTVGESKYGPPCPPCPMFWVLVVVGGVLACYSLLVTVAFIIFWVKRGRKKLLYIFKQPFMRPVQTTQEEDGCSCRFPEEEEGGCELRVKFSRSADAPAYQQGQNQLYNELNLGRREEYDVLDKRRGRDPEMGGKPRRKNPQEGLYNELQKDKMAEAYSEIGMKGERRRGKGHDGLYQGLSTATKDTYDALHMQALPPR
# B3: SLAMF7 CAR with 4-1BB costimulatory domain (protein)
# chain: EVQLVESGGGLVQPGGSLRLSCAASGFDFSRYWMSWVRQAPGKGLEWIGEINPDSSTINYAPSLKDKFIISRDNAKNSLYLQMNSLRAEDTAVYYCARPDGNYWYFDVWGQGTLVTVSSGGGGSGGGGSGGGGSDIQMTQSPSSLSASVGDRVTITCKASQDVGIAVAWYQQKPGKVPKLLIYWASTRHTGVPDRFSGSGSGTDFTLTISSLQPEDVATYYCQQYSSYPYTFGQGTKVEIKESKYGPPCPPCPAPPVAGPSVFLFPPKPKDTLMISRTPEVTCVVVDVSQEDPEVQFNWYVDGVEVHNAKTKPREEQFQSTYRVVSVLTVLHQDWLNGKEYKCKVSNKGLPSSIEKTISKAKGQPREPQVYTLPPSQEEMTKNQVSLTCLVKGFYPSDIAVEWESNGQPENNYKTTPPVLDSDGSFFLYSRLTVDKSRWQEGNVFSCSVMHEALHNHYTQKSLSLSLGKMFWVLVVVGGVLACYSLLVTVAFIIFWVKRGRKKLLYIFKQPFMRPVQTTQEEDGCSCRFPEEEEGGCELRVKFSRSADAPAYQQGQNQLYNELNLGRREEYDVLDKRRGRDPEMGGKPRRKNPQEGLYNELQKDKMAEAYSEIGMKGERRRGKGHDGLYQGLSTATKDTYDALHMQALPPR
# What was measured:
# human SLAMF7 (human) = human SLAMF7 (human) (UniProt Q9NQ25); assay: cell-based or functional assay
# human ROR1 (human) = human ROR1 (human) (UniProt Q01973); assay: cell-based or functional assay
Binder,"specific lysis of K562/SLAMF7 target cells by CD8+ CAR-T cells, no dasatinib, t=6 h (human SLAMF7 (human)) [%]","specific lysis of K562/SLAMF7 target cells by CD8+ CAR-T cells, no dasatinib, t=12 h (human SLAMF7 (human)) [%]","IFN-γ in supernatant (ELISA), CD8+ CAR-T cells co-cultured with RCH-ACV, untreated (human ROR1 (human)) [pg/mL]","proliferation index (CFSE, 72 h), CD8+ CAR-T cells co-cultured with RCH-ACV, untreated (proliferation index) (human ROR1 (human))","specific lysis of K562/ROR1 target cells by CD8+ CAR-T cells, no dasatinib, t=10 h (human ROR1 (human)) [%]","specific lysis of K562/ROR1 target cells by CD8+ CAR-T cells, no dasatinib, up to t=5 h (human ROR1 (human)) [%]","specific lysis of ROR1+ RCH-ACV target cells by CD8+ CAR-T cells, untreated, t=8 h (human ROR1 (human)) [%]"
B1,67,85,–,–,–,–,–
B2,–,–,1310,2.84,94,73,> 90
B3,63,83,–,–,–,–,–
